From patent US20170042969A1 (JULIUS MAXIMILIANS UNIVERSIT T W RZBURG, published 2017)

Biological target: ornithine decarboxylase (ODC) present in Xenopus laevis oocytes
Assay: cell-based or functional assay

| IC50 for down-regulation of hSGLT1-mediated AMG uptake in oocytes (intracellular AMG <10 µM) | change of affinity for down-regulation of hSGLT1 when intracellular AMG is raised to 250 µM | IC50 for down-regulation of hSGLT1 in oocytes at about 0.25 mM intracellular AMG | IC50 for inhibition of SGLT1-mediated AMG uptake in oocytes without injection of AMG | IC50 without injection of AMG, against QSP | increase of affinity at ~0.25 mM intracellular AMG against low intracellular AMG | Binder |
| --- | --- | --- | --- | --- | --- | --- |
| 71 nM | 8 fold |  |  |  |  | hRS1-Reg (regulatory domain of human RS1, amino acids 16-98 of hRS1), wildtype (other, not shown: small tags and cut ends) SSGQSPDVGNPMSLARSVSASVCPIKPSDSDRIEPKAVKALKASAEFQLNSEKKEHLSLQDLSDHASSADHAPTDQSPAMPMQ |
|  |  | 0.0002 nM | 7.9 nM | ~40 times | > 15000 fold | QEP [QEP (glutamine-glutamic acid-proline tripeptide)] |
